Starred links: 1 amine or outer side, 2 acyl side, 3 side chain; linkers in the order of their positions; H or OH if unused. Non-standard residues stand in square brackets, D forms with d. Groups on a side chain read outwards from the residue. No end group written: not given here. *: point of attachment. C20 diacid = O=C(O)CCCCCCCCCCCCCCCCCCC(=O)*; C18 diacid = O=C(O)CCCCCCCCCCCCCCCCC(=O)*; αMePhe(2-F) = C[C@](N)(Cc1ccccc1F)C(=O)O; γGlu = O=C(O)[C@H](CCC(=O)[*:2])N[*:1]; αMeF = C[C@](N)(Cc1ccccc1)C(=O)O; 4Pal = N[C@@H](Cc1ccncc1)C(=O)O; AEEA = NCCOCCOCC(=O)O; Aib = CC(C)(N)C(=O)O
B1: Example 34 (peptide)
peptide: Y[Aib]EGT[αMePhe(2-F)]ISDYSIALDKK([AEEA-AEEA-γGlu-C20 diacid])HQ[Aib]EFVNYLLATGPSSGAPPPS-NH2
modifications: N-terminus assumed
SMILES: CC[C@H](C)[C@H](NC(=O)[C@H](CO)NC(=O)[C@H](Cc1ccc(O)cc1)NC(=O)[C@H](CC(=O)O)NC(=O)[C@H](CO)NC(=O)[C@@H](NC(=O)[C@](C)(Cc1ccccc1F)NC(=O)[C@@H](NC(=O)CNC(=O)[C@H](CCC(=O)O)NC(=O)C(C)(C)NC(=O)[C@@H](N)Cc1ccc(O)cc1)[C@@H](C)O)[C@@H](C)CC)C(=O)N[C@@H](C)C(=O)N[C@@H](CC(C)C)C(=O)N[C@@H](CC(=O)O)C(=O)N[C@@H](CCCCN)C(=O)N[C@@H](CCCCNC(=O)COCCOCCNC(=O)COCCOCCNC(=O)CC[C@H](NC(=O)CCCCCCCCCCCCCCCCCCC(=O)O)C(=O)O)C(=O)N[C@@H](Cc1c[nH]cn1)C(=O)N[C@@H](CCC(N)=O)C(=O)NC(C)(C)C(=O)N[C@@H](CCC(=O)O)C(=O)N[C@@H](Cc1ccccc1)C(=O)N[C@H](C(=O)N[C@@H](CC(N)=O)C(=O)N[C@@H](Cc1ccc(O)cc1)C(=O)N[C@@H](CC(C)C)C(=O)N[C@@H](CC(C)C)C(=O)N[C@@H](C)C(=O)N[C@H](C(=O)NCC(=O)N1CCC[C@H]1C(=O)N[C@@H](CO)C(=O)N[C@@H](CO)C(=O)NCC(=O)N[C@@H](C)C(=O)N1CCC[C@H]1C(=O)N1CCC[C@H]1C(=O)N1CCC[C@H]1C(=O)N[C@@H](CO)C(N)=O)[C@@H](C)O)C(C)C
B2: Example 23 (peptide)
peptide: Y[Aib]EGT[αMeF]ISDYSIALDKK([AEEA-AEEA-γGlu-C18 diacid])HQ[Aib]DFVE[4Pal]LLAGGPSSGAPPPS-NH2
modifications: N-terminus assumed
SMILES: CC[C@H](C)[C@H](NC(=O)[C@H](CO)NC(=O)[C@H](Cc1ccc(O)cc1)NC(=O)[C@H](CC(=O)O)NC(=O)[C@H](CO)NC(=O)[C@@H](NC(=O)[C@](C)(Cc1ccccc1)NC(=O)[C@@H](NC(=O)CNC(=O)[C@H](CCC(=O)O)NC(=O)C(C)(C)NC(=O)[C@@H](N)Cc1ccc(O)cc1)[C@@H](C)O)[C@@H](C)CC)C(=O)N[C@@H](C)C(=O)N[C@@H](CC(C)C)C(=O)N[C@@H](CC(=O)O)C(=O)N[C@@H](CCCCN)C(=O)N[C@@H](CCCCNC(=O)COCCOCCNC(=O)COCCOCCNC(=O)CC[C@H](NC(=O)CCCCCCCCCCCCCCCCC(=O)O)C(=O)O)C(=O)N[C@@H](Cc1c[nH]cn1)C(=O)N[C@@H](CCC(N)=O)C(=O)NC(C)(C)C(=O)N[C@@H](CC(=O)O)C(=O)N[C@@H](Cc1ccccc1)C(=O)N[C@H](C(=O)N[C@@H](CCC(=O)O)C(=O)N[C@@H](Cc1ccncc1)C(=O)N[C@@H](CC(C)C)C(=O)N[C@@H](CC(C)C)C(=O)N[C@@H](C)C(=O)NCC(=O)NCC(=O)N1CCC[C@H]1C(=O)N[C@@H](CO)C(=O)N[C@@H](CO)C(=O)NCC(=O)N[C@@H](C)C(=O)N1CCC[C@H]1C(=O)N1CCC[C@H]1C(=O)N1CCC[C@H]1C(=O)N[C@@H](CO)C(N)=O)C(C)C
B3: Example 38 (peptide)
peptide: Y[Aib]EGT[αMePhe(2-F)]ISDYSIALDKK([AEEA-AEEA-γGlu-C20 diacid])HQ[Aib]DFVE[4Pal]LLETGPSSGAPPPS-NH2
modifications: N-terminus assumed
SMILES: CC[C@H](C)[C@H](NC(=O)[C@H](CO)NC(=O)[C@H](Cc1ccc(O)cc1)NC(=O)[C@H](CC(=O)O)NC(=O)[C@H](CO)NC(=O)[C@@H](NC(=O)[C@](C)(Cc1ccccc1F)NC(=O)[C@@H](NC(=O)CNC(=O)[C@H](CCC(=O)O)NC(=O)C(C)(C)NC(=O)[C@@H](N)Cc1ccc(O)cc1)[C@@H](C)O)[C@@H](C)CC)C(=O)N[C@@H](C)C(=O)N[C@@H](CC(C)C)C(=O)N[C@@H](CC(=O)O)C(=O)N[C@@H](CCCCN)C(=O)N[C@@H](CCCCNC(=O)COCCOCCNC(=O)COCCOCCNC(=O)CC[C@H](NC(=O)CCCCCCCCCCCCCCCCCCC(=O)O)C(=O)O)C(=O)N[C@@H](Cc1c[nH]cn1)C(=O)N[C@@H](CCC(N)=O)C(=O)NC(C)(C)C(=O)N[C@@H](CC(=O)O)C(=O)N[C@@H](Cc1ccccc1)C(=O)N[C@H](C(=O)N[C@@H](CCC(=O)O)C(=O)N[C@@H](Cc1ccncc1)C(=O)N[C@@H](CC(C)C)C(=O)N[C@@H](CC(C)C)C(=O)N[C@@H](CCC(=O)O)C(=O)N[C@H](C(=O)NCC(=O)N1CCC[C@H]1C(=O)N[C@@H](CO)C(=O)N[C@@H](CO)C(=O)NCC(=O)N[C@@H](C)C(=O)N1CCC[C@H]1C(=O)N1CCC[C@H]1C(=O)N1CCC[C@H]1C(=O)N[C@@H](CO)C(N)=O)[C@@H](C)O)C(C)C
B4: Example 42 (peptide)
peptide: Y[Aib]EGT[αMeF]ISDYSIALDKK([AEEA-AEEA-γGlu-C20 diacid])HQ[Aib]DFVE[4Pal]LLEQGPSSGAPPPS-NH2
modifications: N-terminus assumed
SMILES: CC[C@H](C)[C@H](NC(=O)[C@H](CO)NC(=O)[C@H](Cc1ccc(O)cc1)NC(=O)[C@H](CC(=O)O)NC(=O)[C@H](CO)NC(=O)[C@@H](NC(=O)[C@](C)(Cc1ccccc1)NC(=O)[C@@H](NC(=O)CNC(=O)[C@H](CCC(=O)O)NC(=O)C(C)(C)NC(=O)[C@@H](N)Cc1ccc(O)cc1)[C@@H](C)O)[C@@H](C)CC)C(=O)N[C@@H](C)C(=O)N[C@@H](CC(C)C)C(=O)N[C@@H](CC(=O)O)C(=O)N[C@@H](CCCCN)C(=O)N[C@@H](CCCCNC(=O)COCCOCCNC(=O)COCCOCCNC(=O)CC[C@H](NC(=O)CCCCCCCCCCCCCCCCCCC(=O)O)C(=O)O)C(=O)N[C@@H](Cc1c[nH]cn1)C(=O)N[C@@H](CCC(N)=O)C(=O)NC(C)(C)C(=O)N[C@@H](CC(=O)O)C(=O)N[C@@H](Cc1ccccc1)C(=O)N[C@H](C(=O)N[C@@H](CCC(=O)O)C(=O)N[C@@H](Cc1ccncc1)C(=O)N[C@@H](CC(C)C)C(=O)N[C@@H](CC(C)C)C(=O)N[C@@H](CCC(=O)O)C(=O)N[C@@H](CCC(N)=O)C(=O)NCC(=O)N1CCC[C@H]1C(=O)N[C@@H](CO)C(=O)N[C@@H](CO)C(=O)NCC(=O)N[C@@H](C)C(=O)N1CCC[C@H]1C(=O)N1CCC[C@H]1C(=O)N1CCC[C@H]1C(=O)N[C@@H](CO)C(N)=O)C(C)C
B5: Example 43 (peptide)
peptide: Y[Aib]EGT[αMeF]ISDYSIALDKK([AEEA-AEEA-γGlu-C20 diacid])HQ[Aib]DFVE[4Pal]LLEAGPSSGAPPPS-NH2
modifications: N-terminus assumed
SMILES: CC[C@H](C)[C@H](NC(=O)[C@H](CO)NC(=O)[C@H](Cc1ccc(O)cc1)NC(=O)[C@H](CC(=O)O)NC(=O)[C@H](CO)NC(=O)[C@@H](NC(=O)[C@](C)(Cc1ccccc1)NC(=O)[C@@H](NC(=O)CNC(=O)[C@H](CCC(=O)O)NC(=O)C(C)(C)NC(=O)[C@@H](N)Cc1ccc(O)cc1)[C@@H](C)O)[C@@H](C)CC)C(=O)N[C@@H](C)C(=O)N[C@@H](CC(C)C)C(=O)N[C@@H](CC(=O)O)C(=O)N[C@@H](CCCCN)C(=O)N[C@@H](CCCCNC(=O)COCCOCCNC(=O)COCCOCCNC(=O)CC[C@H](NC(=O)CCCCCCCCCCCCCCCCCCC(=O)O)C(=O)O)C(=O)N[C@@H](Cc1c[nH]cn1)C(=O)N[C@@H](CCC(N)=O)C(=O)NC(C)(C)C(=O)N[C@@H](CC(=O)O)C(=O)N[C@@H](Cc1ccccc1)C(=O)N[C@H](C(=O)N[C@@H](CCC(=O)O)C(=O)N[C@@H](Cc1ccncc1)C(=O)N[C@@H](CC(C)C)C(=O)N[C@@H](CC(C)C)C(=O)N[C@@H](CCC(=O)O)C(=O)N[C@@H](C)C(=O)NCC(=O)N1CCC[C@H]1C(=O)N[C@@H](CO)C(=O)N[C@@H](CO)C(=O)NCC(=O)N[C@@H](C)C(=O)N1CCC[C@H]1C(=O)N1CCC[C@H]1C(=O)N1CCC[C@H]1C(=O)N[C@@H](CO)C(N)=O)C(C)C

molecular target: T1, human GLP-1 receptor (human, UniProt P43220 24-463); assay: SPA, displacement of [125I]-GLP-1 from hGLP-1R membranes, 0.1% bacitracin
T1 construct: whole, on cells; Assayed as crude membranes of stably transfected HEK293 cells; also called hGLP1R; hGLP-1R
How it was run: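 Binding buffer: 25 mM HEPES pH 7.4, 2.5 mM CaCl₂, 1 mM MgCl₂, 0.1% bacitracin, 0.003% Tween-20, protease inhibitors without EDTA. Four-parameter nonlinear regression; Kᵢ given as geometric mean ± SEM, n = independent replicates run on different days.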

Binder | Ki [nM]
B1 | 201
B2 | 251
B3 | 776
B4 | 563
B5 | 605

molecular target: T2, human glucagon receptor (human, UniProt P47871 26-477); assay: SPA, displacement of [125I]-Gcg from hGcgR membranes, 0.1% bacitracin
T2 construct: whole, on cells; Assayed as crude membranes of stably transfected HEK293 cells; also called hGcgR; GcgR
T2 sequence (P47871 26-477): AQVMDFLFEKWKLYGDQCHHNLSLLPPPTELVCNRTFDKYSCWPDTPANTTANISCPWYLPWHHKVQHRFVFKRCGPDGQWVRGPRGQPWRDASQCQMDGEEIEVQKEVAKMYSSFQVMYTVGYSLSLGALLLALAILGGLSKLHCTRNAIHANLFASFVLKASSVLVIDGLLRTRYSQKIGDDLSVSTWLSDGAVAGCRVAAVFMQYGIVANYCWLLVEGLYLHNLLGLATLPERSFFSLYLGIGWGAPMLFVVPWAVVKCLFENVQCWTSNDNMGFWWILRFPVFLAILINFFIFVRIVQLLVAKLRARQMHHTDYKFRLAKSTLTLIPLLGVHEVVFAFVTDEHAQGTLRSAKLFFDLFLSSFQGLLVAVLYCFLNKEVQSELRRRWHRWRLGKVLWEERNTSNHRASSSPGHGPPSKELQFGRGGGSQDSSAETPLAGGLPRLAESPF
How it was run: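 Binding buffer: 25 mM HEPES pH 7.4, 2.5 mM CaCl₂, 1 mM MgCl₂, 0.003% Tween-20, protease inhibitors without EDTA. Counted by scintillation after 12 h incubation/settling at room temperature. Four-parameter nonlinear fit; Kᵢ given as geometric mean ± SEM of independent replicates run on different days.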

Binder | Ki [nM]
B1 | 143
B2 | 323
B3 | 182
B4 | 99.1
B5 | 285

molecular target: T3, human glucose-dependent insulinotropic polypeptide (GIP) receptor (human, UniProt P48546 22-466); assay: SPA, displacement of [125I]-GIP from hGIPR membranes, 0.1% bacitracin
T3 construct: whole, on cells; Assayed as crude membranes of stably transfected CHO cells; also called hGIPR; human GIP receptor
T3 sequence (looked up): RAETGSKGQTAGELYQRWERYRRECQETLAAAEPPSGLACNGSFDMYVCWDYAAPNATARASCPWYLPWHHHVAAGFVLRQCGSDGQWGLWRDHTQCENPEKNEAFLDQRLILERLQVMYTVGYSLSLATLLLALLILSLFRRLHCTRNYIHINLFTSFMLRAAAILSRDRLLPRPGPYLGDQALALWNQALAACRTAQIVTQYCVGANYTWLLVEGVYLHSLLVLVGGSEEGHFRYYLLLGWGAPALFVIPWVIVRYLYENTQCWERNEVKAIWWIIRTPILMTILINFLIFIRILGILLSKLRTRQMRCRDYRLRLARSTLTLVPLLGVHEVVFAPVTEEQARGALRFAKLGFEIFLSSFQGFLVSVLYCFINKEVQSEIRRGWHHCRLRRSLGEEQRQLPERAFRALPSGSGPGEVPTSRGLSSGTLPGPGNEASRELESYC

Binder | Ki [nM]
B1 | 0.034
B2 | 0.0341
B3 | 0.0588
B4 | 0.0392
B5 | 0.0366
